Measured values from paper PMC10869273.
pKd: −log10 of the molar value.

Tests used:
Assay in all cases: BLI
[1] = target: HA H1 Solomon (A/Solomon Islands/3/2006(H1N1)); settings: monovalent Fab
H1 Caledonia = target: H1 Caledonia
H2 Japan = target: H2 Japan
H3 Panama = target: H3 Panama
H3 Victoria = target: H3 Victoria
H5 Vietnam = target: H5 Vietnam

With “MEDI8852 unmutated common ancestor (UCA) Fab (wild-type) VH:K58S; VH:V65P; VL:G95P” as the substance, how does the pKd [1] read?
Its pKd is 7.30.

What does the source list for MEDI8852 VH E65P Fab?
pKd (H1 Caledonia): > 12.00; pKd (H2 Japan): > 12.00; pKd (H3 Panama): > 12.00; pKd (H3 Victoria): > 12.00; pKd (H5 Vietnam): > 12.00
